Data taken from patent US20070086998A1 (GPC BIOTECH, published 2007).
Numbering of substitutions follows the chain as printed.

T1: human MHC class II DR protein (DRA*0101/DRB1*0401), purified (human, UniProt P01903 26-254; P01911 30-266, limits assumed)
T1 construct: mature; Detergent-solubilised protein purified from PRIESS cell lysate on an LB3.1 column; also called HLA-DR protein
T1 MHC II alpha: not shown
T1 MHC II beta: not shown

T2: HLA-DR on PRIESS cells (DRA*0101/DRB1*0401) (human, UniProt P01903 26-254; P01911 30-266)
T2 MHC II alpha: not shown
T2 MHC II beta: not shown

B1: L243 (antibody, V domains shown)
VH: QIQLVQSGPELKKPGETVKISCKASGFTFTNYGMNWVKQAPGKGLKWMGWINTYTREPTYADDFKGRFAFSLETSASTAYLQINNLKNEDTAKYFCARDITAVVPTGFDYWGQGTTLTVSS
VL: DIQMTQSPASLSVSVGETVTITCRASENIYSNLAWYRQKQGKSPQLLVFAASNLADGVPSRFSGSGSGTQYSLKINSLQSEDFGDYYCQHFWTTPWAFGGGTNLEIK
B2: MS-GPC-8-6-47 (Fab) (Fab, V domains shown)
VH: QVQLKESGPALVKPTQTLTLTCTFSGFSLSTSGVGVGWIRQPPGKALEWLALIDWDDDKYYSTSLKTRLTISKDTSKNQVVLTMTNMDPVDTATYYCARSPRYRGAFDYWGQGTLVTVSS
VL: DIVLTQPPSVSGAPGQRVTISCSGSESNIGSNYVSWYQQLPGTAPKLLIYDNNQRPSGVPDRFSGSKSGTSASLAITGLQSEDEADYYCQSYDYDHYVFGGGTKLTVLG
B3: MS-GPC-8-6 (IgG form) (antibody, V domains shown)
VH: B2 VH with Q3E
VL: B2 VL with E26S
B4: MS-GPC-8-6-2 (Fab) (Fab, V domains shown)
VH: B2 VH
VL: B2 VL with S35H
B5: MS-GPC-8-6-2 (IgG form) (antibody, V domains shown)
VH: B2 VH with Q3E
VL: B2 VL with S35H
B6: MS-GPC-8-27-10 (Fab) (Fab, V domains shown)
VH: B2 VH
VL: B2 VL with S31A, S35N, Y94M, D95N, H96V, Y97H
B7: MS-GPC-8-27-41 (IgG4 form) (antibody, V domains shown)
VH: B2 VH with Q3E
VL: B2 VL with S31N, S35Q, Y94M, D95N, H96V, Y97H
B8: MS-GPC-8-17 (Fab) (Fab, V domains shown)
VH: B2 VH
VL: B2 VL with E26S, Y94F, D95S, H96V
B9: MS-GPC-8-27-41 (Fab) (Fab, V domains shown)
VH: B2 VH
VL: B2 VL with S31N, S35Q, Y94M, D95N, H96V, Y97H
B10: MS-GPC-8-27-7 (Fab) (Fab, V domains shown)
VH: B2 VH
VL: B2 VL with S31N, S35G, Y94M, D95N, H96V, Y97H
B11: MS-GPC-8-6-13 (Fab) (Fab, V domains shown)
VH: B2 VH
VL: B2 VL with S31A, S35T
B12: MS-GPC-8-6-13 (IgG4 form) (antibody, V domains shown)
VH: B2 VH with Q3E
VL: B2 VL with S31A, S35T
B13: MS-GPC-1-Fab (Fab, V domains shown)
VH: B2 VH with S100Q, P101Y, R102G, Y103H, A106G, Y109H
VL: B2 VL with E26S, Y94F, D95N, H96E, Y97S
B14: MS-GPC-8-6 (Fab) (Fab, V domains shown)
VH: B2 VH
VL: B2 VL with E26S
B15: MS-GPC-8-10-57 (IgG4 form) (antibody, V domains shown)
VH: B2 VH with Q3E
VL: B2 VL with S31N, S35Q, Y94L, D95I, H96R, Y97H
B16: MS-GPC-8-Fab (Fab, V domains shown)
VH: B2 VH
VL: B2 VL with E26S, Y94M, D95P, H96Q, Y97A
B17: MS-GPC-8-6-19 (Fab) (Fab, V domains shown)
VH: B2 VH
VL: B2 VL with S35A
B18: MS-GPC-10-Fab (Fab, V domains shown)
VH: B2 VH with S100Q, P101L, R102H, A106G, Y109L
VL: B2 VL with E26S, Y94L, D95T, H96M, Y97G
B19: MS-GPC-8-6-27 (Fab) (Fab, V domains shown)
VH: B2 VH
VL: B2 VL with E26D, S31A, S35T
B20: MS-GPC-8-10-57 (Fab) (Fab, V domains shown)
VH: B2 VH
VL: B2 VL with S31N, S35Q, Y94L, D95I, H96R, Y97H

Tests used:
[1] = biological target: T1, human MHC class II DR protein …; experiment: not stated (Z. A. Nagy, unpublished)
[2] = biological target: T3, chimeric DR-IE (human-mouse chimeric MHC class II molecule) (human; murine); experiment: cell-based or functional assay
[3] = biological target: T2, HLA-DR on PRIESS cells …; experiment: cell-based or functional assay
[4] = biological target: T3, chimeric DR-IE (human-mouse chimeric …); experiment: cell-based or functional assay; remark: listed apart in the source
[5] = biological target: T2, HLA-DR on PRIESS cells …; experiment: cell-based or functional assay
[6] = biological target: HLA-DR on LG-2 cells (human); experiment: cell-based or functional assay
[7] = biological target: HLA-DR on LG-2 cells (human); experiment: cell-based or functional assay; remark: listed apart in the source
[8] = biological target: T2, HLA-DR on PRIESS cells …; experiment: cell-based or functional assay

Binder	IC50, IL-2 secretion of T-Hyb 1 cells stimulated by 0401-IE transgenic APC; Fab [2]	Maximum inhibition(%), IL-2 secretion of T-Hyb 1 cells; Fab [2] [%]	EC50 of cell killing for bivalent agent; PRIESS; Fab cross-linked with anti-FLAG M2 [3] [nM]	other results
B1				Kd [1]: 10 nM
B2	2.6 nM (Fab concentration/2)	100		
B3				IC50, IL-2 secretion of T-Hyb 1 cells stimulated by 0401-IE transgenic APC; IgG [2]: 6.7 nM; Maximum inhibition(%), IL-2 secretion of T-Hyb 1 cells; IgG [2]: 100%
B4	4.7 nM (Fab concentration/2)	100	8	
B5				IC50, IL-2 secretion of T-Hyb 1 cells stimulated by 0401-IE transgenic APC; IgG [2]: 3.6 nM; Maximum inhibition(%), IL-2 secretion of T-Hyb 1 cells; IgG [2]: 100%
B6	7.3 nM (Fab concentration/2)	100		
B7				IC50 value for inhibition of T cell proliferation (lymph node cells of chimeric 0401-IE transgenic mice, ovalbumin) [4]: 20 nM; % Killing by mAb; PRIESS (DR 4,4); 50 nM, 4 h [5]: 88%; % Killing by mAb; LG-2 (DR 1,1); 50 nM, 4 h [6]: 87%; EC50 of cell killing for bivalent agent; PRIESS; IgG4 [3]: 1.1 nM; EC50 of cell killing for bivalent agent; LG2; IgG4 [7]: 1.23 nM; IC50, IL-2 secretion of T-Hyb 1 cells stimulated by 0401-IE transgenic APC; IgG [2]: 0.28 nM; Maximum inhibition(%), IL-2 secretion of T-Hyb 1 cells; IgG [2]: 100%
B8			16	
B9	3.6 nM (Fab concentration/2)	100	7.7	EC50 of cell killing for bivalent agent; LG2; Fab cross-linked with anti-FLAG M2 [7]: 7.2 nM
B10	5.9 nM (Fab concentration/2)	100		
B11	2.1 nM (Fab concentration/2)	100		
B12				% Killing by mAb; PRIESS (DR 4,4); 50 nM, 4 h [5]: 74%; % Killing by mAb; LG-2 (DR 1,1); 50 nM, 4 h [6]: 82%; IC50, IL-2 secretion of T-Hyb 1 cells stimulated by 0401-IE transgenic APC; IgG [2]: 0.42 nM; Maximum inhibition(%), IL-2 secretion of T-Hyb 1 cells; IgG [2]: 100%
B13			54	
B14	20 nM (Fab concentration/2)	100		
B15				IC50 value for inhibition of T cell proliferation (lymph node cells of chimeric 0401-IE transgenic mice, ovalbumin) [4]: 11 nM; % Killing by mAb; PRIESS (DR 4,4); 50 nM, 4 h [5]: 93%; % Killing by mAb; LG-2 (DR 1,1); 50 nM, 4 h [6]: 88%; EC50 of cell killing for bivalent agent; PRIESS; IgG4 [3]: 1.1 nM; EC50 of cell killing for bivalent agent; LG2; IgG4 [7]: 1 nM; IC50, IL-2 secretion of T-Hyb 1 cells stimulated by 0401-IE transgenic APC; IgG [2]: 0.31 nM; Maximum inhibition(%), IL-2 secretion of T-Hyb 1 cells; IgG [2]: 100%
B16	110 nM (Fab concentration/2)	100	31	maximum killing capacity against PRIESS cells, cross-linked bivalent fragment [8]: 84%
B17	5.3 nM (Fab concentration/2)	100		
B18			33	
B19	3 nM (Fab concentration/2)	100		
B20	2.9 nM (Fab concentration/2)	100		EC50 of cell killing for bivalent agent; LG2; Fab cross-linked with anti-FLAG M2 [7]: 7.2 nM
